We go through nine molecules from patent US20260137802A1 (CRISPR THERAPEUTICS, published 2026).

Where only a bound is given, the exact number is not on record here.

Test [1] has as its target T1, human CD117 ectodomain (human, UniProt P10721 26-524, biotinylated (BirA co-expression) where captured on streptavidin biosensors).
T1 construct: extracellular domain; also called cKIT; full length AviTagged CD117 ectodomain; not shown: C-terminal AviTag or His tag
The test is described as follows: BLI (Octet), biotinylated ectodomain on SA biosensor, 1:1 global fit, monomeric Fc. The source says:
Pre-equilibrated streptavidin biosensors (SA, from Sartorius) were coated with biotinylated CD117 ectodomain by dipping the biosensors into wells containing an optimized dilution of human or cyno CD117 ectodomain. After re-equilibrating the biosensor tips in assay buffer, the biosensors were dipped into supernatant containing the VHH antibodies to allow association between the antibodies and the CD117 ectodomain. Finally, the biosensors were dipped into the assay buffer. The VHH antibodies disassociated from the CD117 ectodomain if association occurred. The association and dissociation of each VHH antibody was characterized qualitatively to identify VHHs that could bind both human and cyno CD117 ectodomains.
For example, kinetics parameters of the top VHH antibodies for binding to human CD117 and cynomolgus monkey CD117 ectodomain were obtained from the Octet® analysis by Biolayer Interferometry as described above. A minimum of three concentrations of purified VHH antibodies were tested per ectodomain target. The Octet® software was used to perform a global kinetic fit across all concentrations using a 1:1 binding model. This allowed determination of the kinetic parameters, association rate (kₒₙ), dissociation rate (koff) and equilibrium constant (KD) for the 9 antibodies of interest. Total chi-squared (X²) was also examined to determine the goodness of fit for the software's kinetic model.
For orientation: In BLI a coated tip is dipped into the sample, and binding shifts an interference pattern.

Test [2] deals with cynomolgus monkey CD117 ectodomain (cynomolgus monkey). Described as above.
Test [3] deals with T2, human CD117 on cells (SKMEL-3 cells, CD34+ HSC) (human, UniProt P10721 26-976).
T2 construct: whole, on cells; also called CD117 on cell surfaces; CD117+ cells
T2 sequence (P10721 26-976): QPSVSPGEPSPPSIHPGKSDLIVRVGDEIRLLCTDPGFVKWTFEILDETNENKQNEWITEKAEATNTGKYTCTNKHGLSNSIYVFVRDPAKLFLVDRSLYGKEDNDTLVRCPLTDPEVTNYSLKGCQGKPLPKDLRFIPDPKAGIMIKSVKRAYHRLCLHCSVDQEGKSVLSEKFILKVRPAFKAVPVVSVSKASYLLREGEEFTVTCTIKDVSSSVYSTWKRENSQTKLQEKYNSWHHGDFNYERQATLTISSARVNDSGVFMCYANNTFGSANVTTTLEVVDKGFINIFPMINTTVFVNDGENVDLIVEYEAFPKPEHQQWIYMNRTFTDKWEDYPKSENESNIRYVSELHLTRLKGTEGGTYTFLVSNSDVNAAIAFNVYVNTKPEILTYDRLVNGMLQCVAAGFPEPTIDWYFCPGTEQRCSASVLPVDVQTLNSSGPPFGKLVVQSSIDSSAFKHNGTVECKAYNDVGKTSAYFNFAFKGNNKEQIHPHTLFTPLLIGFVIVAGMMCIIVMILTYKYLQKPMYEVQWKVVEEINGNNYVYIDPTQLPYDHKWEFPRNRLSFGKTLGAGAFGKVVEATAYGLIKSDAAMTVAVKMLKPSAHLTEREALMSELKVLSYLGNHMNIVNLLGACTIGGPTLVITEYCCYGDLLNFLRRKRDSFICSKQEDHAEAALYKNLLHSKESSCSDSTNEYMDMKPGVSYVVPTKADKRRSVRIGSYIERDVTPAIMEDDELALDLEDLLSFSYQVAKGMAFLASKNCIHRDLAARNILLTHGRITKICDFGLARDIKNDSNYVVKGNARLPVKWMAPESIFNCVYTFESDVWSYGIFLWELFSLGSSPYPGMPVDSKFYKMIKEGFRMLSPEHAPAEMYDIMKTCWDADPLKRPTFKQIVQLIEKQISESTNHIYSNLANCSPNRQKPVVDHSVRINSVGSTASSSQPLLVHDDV
Briefly: flow cytometry, skMEL-3 cells, monomeric Fc.

The target in test [4] is T2, human CD117 on cells (SKMEL-3 cells, …). The test is described as follows: flow cytometry, CD34+ HSC, monomeric Fc.
Test [5] deals with T1, human CD117 ectodomain. The test is described as follows: ELISA, human CD117, monovalent Fc fusion. (ELISA stands for enzyme-linked immunosorbent assay.)
The target of test [6] is T3, truncated CD117 ectodomain, Domains 1-3 (UniProt P10721 26-311, limits assumed, biotinylated).
T3 construct: domain: Domains 1-3; not shown: AviTag
T3 sequence (P10721 26-311 limits assumed): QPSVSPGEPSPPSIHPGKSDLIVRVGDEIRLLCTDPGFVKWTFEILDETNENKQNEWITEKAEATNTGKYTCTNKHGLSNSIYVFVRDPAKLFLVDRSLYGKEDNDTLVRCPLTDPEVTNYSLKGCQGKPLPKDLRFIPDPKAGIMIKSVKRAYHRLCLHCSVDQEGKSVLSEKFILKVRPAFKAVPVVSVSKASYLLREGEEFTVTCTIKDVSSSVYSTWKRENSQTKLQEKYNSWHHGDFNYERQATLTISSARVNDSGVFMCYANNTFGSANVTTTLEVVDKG
The test is described as follows: BLI, truncated ectodomain on SA biosensor. Here is the method: (§1) To identify the approximate binding epitopes of the VHH antibodies, truncated ectodomains were expressed as fusion polypeptides with an AviTag. Additionally, biotin is added to the protein during expression to allow capture of the material onto Streptavidin-coated (SA) biosensors. SA biosensors (Sartorius) were incubated with one of the truncated ectodomains. Full length CD117 ectodomain was used as a control. […] Except for P29 and P37, all others bind Domains 1-2 and Domains 1-3. Except for P37, all others bind Domains 1-4.

Test [7] addresses T4, truncated CD117 ectodomain, Domain 1 (UniProt P10721 26-112, limits assumed, biotinylated).
T4 construct: domain: Domain 1; not shown: AviTag
The test is described as follows: BLI, truncated ectodomain on SA biosensor. Here is the method: as §1

The target in test [8] is T5, truncated CD117 ectodomain, Domains 1-2 (UniProt P10721 26-208, limits assumed, biotinylated).
T5 construct: domain: Domains 1-2; not shown: AviTag
T5 sequence (P10721 26-208 limits assumed): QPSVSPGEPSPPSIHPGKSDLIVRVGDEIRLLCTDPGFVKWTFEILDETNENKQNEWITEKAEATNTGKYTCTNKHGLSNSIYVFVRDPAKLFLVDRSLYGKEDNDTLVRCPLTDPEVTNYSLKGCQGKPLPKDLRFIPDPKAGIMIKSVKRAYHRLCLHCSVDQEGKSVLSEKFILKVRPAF
The test is described as follows: BLI, truncated ectodomain on SA biosensor. Here is the method:
as §1

In test [9] the target is T6, truncated CD117 ectodomain, Domains 1-4 (UniProt P10721 26-410, limits assumed, biotinylated).
T6 construct: domain: Domains 1-4; not shown: AviTag
T6 sequence (P10721 26-410 limits assumed): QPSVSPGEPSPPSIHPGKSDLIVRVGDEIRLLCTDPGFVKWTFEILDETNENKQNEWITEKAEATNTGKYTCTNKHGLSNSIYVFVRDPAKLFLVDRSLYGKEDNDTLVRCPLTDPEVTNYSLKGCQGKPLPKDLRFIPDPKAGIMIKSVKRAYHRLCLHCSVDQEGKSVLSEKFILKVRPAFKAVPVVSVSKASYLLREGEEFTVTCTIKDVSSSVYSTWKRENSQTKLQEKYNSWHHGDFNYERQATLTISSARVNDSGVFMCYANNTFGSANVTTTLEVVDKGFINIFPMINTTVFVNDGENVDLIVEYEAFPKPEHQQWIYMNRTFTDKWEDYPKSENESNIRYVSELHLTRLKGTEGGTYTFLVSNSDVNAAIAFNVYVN
The test is described as follows: BLI, truncated ectodomain on SA biosensor. On the procedure: as §1

In general, Kd refers to a measure of binding affinity in units of concentration. What is called EC50 is the concentration at which the effect is half-maximal.

T1 sequence (P10721 26-524): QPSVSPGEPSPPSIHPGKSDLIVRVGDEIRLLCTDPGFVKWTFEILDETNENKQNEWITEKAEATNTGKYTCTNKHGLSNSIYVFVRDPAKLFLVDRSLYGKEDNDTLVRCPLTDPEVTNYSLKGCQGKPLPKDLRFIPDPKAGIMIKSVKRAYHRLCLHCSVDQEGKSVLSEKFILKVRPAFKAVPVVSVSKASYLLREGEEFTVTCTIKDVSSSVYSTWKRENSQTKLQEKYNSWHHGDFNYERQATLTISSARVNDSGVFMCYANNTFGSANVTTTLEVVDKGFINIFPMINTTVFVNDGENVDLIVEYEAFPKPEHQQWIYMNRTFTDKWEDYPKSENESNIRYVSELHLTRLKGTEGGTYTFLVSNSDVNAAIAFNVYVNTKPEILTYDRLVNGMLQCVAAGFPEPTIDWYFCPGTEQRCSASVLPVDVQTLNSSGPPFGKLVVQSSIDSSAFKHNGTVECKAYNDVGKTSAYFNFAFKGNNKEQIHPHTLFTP
T4 sequence (P10721 26-112 limits assumed): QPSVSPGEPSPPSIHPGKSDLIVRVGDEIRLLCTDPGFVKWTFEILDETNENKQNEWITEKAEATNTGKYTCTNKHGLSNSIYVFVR

B1: P-0027 (Fc fusion)
chain: EVQLVESGGGLVRAGGSLRLSCAASGRTTFSTYWLGWFRQAPGKNREFVAAISWSAGMAYYQDSKGRFTISRDNTKNTAYLQMNSLQPEDTAVYYCAAGRFHPIRVDTALYWAQGTQVTVSS
notes: Any second Fc chain without VHH is not described in the text; also called monovalent form of P27; not shown: Fc fragment
Regarding B1, the results for the Kd in [1], in test [2] and in [5] were 44.7 nM, 8.11 nM and 1.32 nM, respectively. In addition, the EC50 in [3] and in [4] was 10 nM in each case.

B2: P-0035 (Fc fusion)
chain: QVQLVESGGGLVQAGGSLRLSCAASGGTFSIYPVGWFRQAPGKQREFVAAIGWSASGTYYGDSVEGRFTVSRDNARSTVYLRMSSLKPDDTAVYYCAAASGSNWRLGAIDEYDSWGQGTQVTVSS
notes: Any second Fc chain without VHH is not described in the text; also called monovalent form of P35; not shown: Fc fragment
As to B2, the Kd in [1] worked out at 2.89 nM; in test [2], 7.02 nM; in [5], 1.91 nM. In addition, the EC50 was 10 nM in test [3] and 30 nM in [4].

B3: P29 (VHH)
VHH: QVHLVESGGGLVQAGGSLGLSCAASGHTFSNYAMGWFRQAPGKEREFVAAISWSGGSTLYADSVKGRFTISRDNGENTVYLQMNSLKPEDTAVYYCALDSTGVYGTGYVSSRKGRYEYWGQGTLVTVSS
notes: also called P29/P54; anti-CD117 VHH P29
For the molecule B3, the binding result in test [6], in test [7] and in test [8] was “no binding” in each case.

B4: P-0037 (Fc fusion)
chain: QVQLVESGGGLVQAGDSLRLSCAVSGRTLSNYFMAWLRQAPGKEREFVAAIHWSLGSTYYQDPVKGRFTISRDKAKNTVYLQMNTLKPEDTATYICAAGQHLSGLGGSAWSIEGDYWGQGTQVTVSS
notes: Any second Fc chain without VHH is not described in the text; also called monovalent form of P37; not shown: Fc fragment
For B4, the Kd in test [1] is 28 nM; in [2], 25 nM; in test [5] it was 0.97 nM. Moreover, the EC50 was 20 nM in test [3] and more than 50 nM in test [4].

B5: P37 (VHH)
VHH: QVQLVESGGGLVQAGDSLRLSCAVSGRTLSNYFMAWLRQAPGKEREFVAAIHWSLGSTYYQDPVKGRFTISRDKAKNTVYLQMNTLKPEDTATYICAAGQHLSGLGGSAWSIEGDYWGQGTQVTVSS
notes: also called P37/P58; anti-CD117 VHH P37
As to B5, the binding result in test [6], in test [9], in test [7] and in test [8] was “no binding” each time.

B6: P-0031 (Fc fusion)
chain: EVQLVESGGGLVRAGGSLRLSCAASGRTFTYDARAWFRQAPGKEREFVAAISWSGGSTYYPNSMKGRFTISRDNAKNTVYLQMNSLKPEDTAVYYCAADESFPAYYSDYALYRYWGQGTLVTVSS
notes: Any second Fc chain without VHH is not described in the text; also called monovalent form of P31; not shown: Fc fragment
On to B6, for which the figures for the Kd in [1], in [2] and in [5] were 7.42 nM, 1.62 nM and 0.52 nM, respectively. In addition, the EC50 amounted to 3 nM in [3] and 4 nM in test [4].

B7: P-0032 (Fc fusion)
chain: QVQLVESGGGLVQAGDSLRLSCAASGRTFSSYAMGWFRQAPGKEREFVASITSSGLVAYYGDSVEARFTISRDNAKNTVYLQMDSLKPEDTAVYYCAARQYVGSGSYYLKKEGGYEYWGPGTQVTVSS
notes: Any second Fc chain without VHH is not described in the text; also called monovalent form of P32; not shown: Fc fragment
On to B7, for which the Kd turned out to be 1.86 nM in test [1], 8.01 nM in test [2] and 1.49 nM in test [5].

B8: P-0038 (Fc fusion)
chain: EVQLVESGGGLVQAGGSLRLSCAASGRTSGSYVMGWFRQAPGKEREFVAAISWSAGMTYYADSVKGRFTISRDNAKNTVYLQMNSLKPEDTAVYYCAADQRGVPAYYSDYALYDYWGQGTQVTVSS
notes: Any second Fc chain without VHH is not described in the text; also called monovalent form of P38; not shown: Fc fragment
Take B8: the dissociation constant Kd in test [1] was determined as 8.85 nM; in test [2], 19 nM; in test [5] it was 1 nM. The EC50 in test [3] and in test [4] was 10 nM throughout.

B9: P-0010 (Fc fusion)
chain: QVQLVESGGGLVQAGGSLRLSCVASGRTFSSYAMGWFRQGPGKEREFAAAILSNGLTTYYADSVKGRFTISRDNAKDTVYLQMNSLKPEDTANYYCAAAFTPEFRDGGIWDDASVDYWGQGTQVTVSS
notes: Any second Fc chain without VHH is not described in the text; also called monovalent form of P10; not shown: Fc fragment
Consider B9, for which the equilibrium dissociation constant (Kd) in test [1] was 16.5 nM; in test [2], 54.9 nM; in [5], 0.28 nM. For the same molecule, the EC50 in [3] and in test [4] was 2 nM each time.
